From US20140199327A1, “METHODS OF PROMOTING DIFFERENTIATION” (Genentech, Inc., priority 2011, published 2014) come the findings set out here.

Assay [1] concerns the target T1, USP1-Flag (wild-type human USP1 with in-frame C-terminal Flag epitope) (human, UniProt O94782 1-785).
T1 construct: Synthesised human USP1 cDNA in pRK2001, expressed in 293T cells; also called USP1 wild-type; WT
T1 sequence: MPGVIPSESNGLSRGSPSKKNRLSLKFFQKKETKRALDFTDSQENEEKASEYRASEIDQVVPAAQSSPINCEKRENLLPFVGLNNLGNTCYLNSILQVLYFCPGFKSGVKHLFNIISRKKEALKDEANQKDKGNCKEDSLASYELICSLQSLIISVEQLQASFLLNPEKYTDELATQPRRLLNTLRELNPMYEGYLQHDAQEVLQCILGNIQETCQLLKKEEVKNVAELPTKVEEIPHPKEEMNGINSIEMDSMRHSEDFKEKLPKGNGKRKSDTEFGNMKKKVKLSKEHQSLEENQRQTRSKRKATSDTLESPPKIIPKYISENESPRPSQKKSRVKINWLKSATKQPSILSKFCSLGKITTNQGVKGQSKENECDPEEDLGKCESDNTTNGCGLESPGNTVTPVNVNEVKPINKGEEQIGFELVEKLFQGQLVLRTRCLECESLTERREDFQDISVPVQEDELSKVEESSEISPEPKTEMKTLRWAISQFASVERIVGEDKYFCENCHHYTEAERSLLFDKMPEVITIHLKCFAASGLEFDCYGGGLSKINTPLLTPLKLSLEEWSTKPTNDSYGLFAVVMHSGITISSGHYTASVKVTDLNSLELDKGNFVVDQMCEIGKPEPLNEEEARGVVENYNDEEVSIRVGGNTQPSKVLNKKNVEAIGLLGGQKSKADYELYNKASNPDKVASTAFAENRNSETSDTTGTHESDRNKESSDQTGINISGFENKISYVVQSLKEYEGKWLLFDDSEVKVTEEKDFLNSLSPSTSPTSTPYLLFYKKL
Briefly: Flag immunoprecipitation of DUBs from 293T cells cotransfected with ID2, MG-132 treated; blot for ID2 (FIG. 2B). As to the method: (§1) FIG. 2. […] (A) Western blot (WB) analysis of 293T transfected with Flag-tagged deubiquitinases (DUBs) or an empty vector (−). Where indicated, cells were treated with […] MG-132 for 4 hr. (B) Flag-tagged DUBs were immunoprecipitated (IP) from 293T cells cotransfected with ID2 and treated with […] MG-132 for 6 hr.

In assay [2] the target is T2, USP37-Flag (human USP37 with C-terminal Flag epitope) (human, UniProt Q86T82 1-979, limits assumed).
T2 sequence (looked up): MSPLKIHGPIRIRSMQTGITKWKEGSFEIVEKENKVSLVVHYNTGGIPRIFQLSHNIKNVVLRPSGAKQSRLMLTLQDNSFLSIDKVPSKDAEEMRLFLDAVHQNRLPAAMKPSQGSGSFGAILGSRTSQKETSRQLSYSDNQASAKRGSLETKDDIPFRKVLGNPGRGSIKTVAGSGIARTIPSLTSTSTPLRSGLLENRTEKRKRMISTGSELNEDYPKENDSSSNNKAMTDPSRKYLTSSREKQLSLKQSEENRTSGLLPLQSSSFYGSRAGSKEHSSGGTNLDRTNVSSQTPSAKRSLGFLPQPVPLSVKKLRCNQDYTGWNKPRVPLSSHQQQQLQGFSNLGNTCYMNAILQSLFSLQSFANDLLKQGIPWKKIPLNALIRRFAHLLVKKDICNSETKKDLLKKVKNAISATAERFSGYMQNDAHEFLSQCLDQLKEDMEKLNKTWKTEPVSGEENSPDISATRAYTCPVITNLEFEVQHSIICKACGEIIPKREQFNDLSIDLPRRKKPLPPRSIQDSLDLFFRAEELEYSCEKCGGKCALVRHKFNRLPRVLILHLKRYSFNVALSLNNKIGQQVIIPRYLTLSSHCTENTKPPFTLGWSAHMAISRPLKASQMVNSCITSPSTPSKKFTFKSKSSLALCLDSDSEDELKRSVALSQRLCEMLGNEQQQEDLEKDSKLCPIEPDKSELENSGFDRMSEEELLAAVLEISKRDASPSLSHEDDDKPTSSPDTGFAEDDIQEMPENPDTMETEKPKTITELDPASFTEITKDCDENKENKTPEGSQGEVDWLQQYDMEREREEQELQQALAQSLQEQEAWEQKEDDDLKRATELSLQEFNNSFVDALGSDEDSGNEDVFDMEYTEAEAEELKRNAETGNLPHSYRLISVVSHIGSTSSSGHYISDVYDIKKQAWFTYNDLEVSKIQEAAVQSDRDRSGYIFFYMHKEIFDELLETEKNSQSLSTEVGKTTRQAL
Briefly: Flag immunoprecipitation of DUBs from 293T cells cotransfected with ID2, MG-132 treated (FIG. 2B). As to the method: as §1

The target of assay [3] is USP9Y-Flag (human USP9Y with C-terminal Flag epitope) (human, UniProt O00507 1-2555, limits assumed). Described as above. The method, then: as §1
USP9Y-Flag (human USP9Y with C-terminal Flag epitope), sequence (O00507 whole entry): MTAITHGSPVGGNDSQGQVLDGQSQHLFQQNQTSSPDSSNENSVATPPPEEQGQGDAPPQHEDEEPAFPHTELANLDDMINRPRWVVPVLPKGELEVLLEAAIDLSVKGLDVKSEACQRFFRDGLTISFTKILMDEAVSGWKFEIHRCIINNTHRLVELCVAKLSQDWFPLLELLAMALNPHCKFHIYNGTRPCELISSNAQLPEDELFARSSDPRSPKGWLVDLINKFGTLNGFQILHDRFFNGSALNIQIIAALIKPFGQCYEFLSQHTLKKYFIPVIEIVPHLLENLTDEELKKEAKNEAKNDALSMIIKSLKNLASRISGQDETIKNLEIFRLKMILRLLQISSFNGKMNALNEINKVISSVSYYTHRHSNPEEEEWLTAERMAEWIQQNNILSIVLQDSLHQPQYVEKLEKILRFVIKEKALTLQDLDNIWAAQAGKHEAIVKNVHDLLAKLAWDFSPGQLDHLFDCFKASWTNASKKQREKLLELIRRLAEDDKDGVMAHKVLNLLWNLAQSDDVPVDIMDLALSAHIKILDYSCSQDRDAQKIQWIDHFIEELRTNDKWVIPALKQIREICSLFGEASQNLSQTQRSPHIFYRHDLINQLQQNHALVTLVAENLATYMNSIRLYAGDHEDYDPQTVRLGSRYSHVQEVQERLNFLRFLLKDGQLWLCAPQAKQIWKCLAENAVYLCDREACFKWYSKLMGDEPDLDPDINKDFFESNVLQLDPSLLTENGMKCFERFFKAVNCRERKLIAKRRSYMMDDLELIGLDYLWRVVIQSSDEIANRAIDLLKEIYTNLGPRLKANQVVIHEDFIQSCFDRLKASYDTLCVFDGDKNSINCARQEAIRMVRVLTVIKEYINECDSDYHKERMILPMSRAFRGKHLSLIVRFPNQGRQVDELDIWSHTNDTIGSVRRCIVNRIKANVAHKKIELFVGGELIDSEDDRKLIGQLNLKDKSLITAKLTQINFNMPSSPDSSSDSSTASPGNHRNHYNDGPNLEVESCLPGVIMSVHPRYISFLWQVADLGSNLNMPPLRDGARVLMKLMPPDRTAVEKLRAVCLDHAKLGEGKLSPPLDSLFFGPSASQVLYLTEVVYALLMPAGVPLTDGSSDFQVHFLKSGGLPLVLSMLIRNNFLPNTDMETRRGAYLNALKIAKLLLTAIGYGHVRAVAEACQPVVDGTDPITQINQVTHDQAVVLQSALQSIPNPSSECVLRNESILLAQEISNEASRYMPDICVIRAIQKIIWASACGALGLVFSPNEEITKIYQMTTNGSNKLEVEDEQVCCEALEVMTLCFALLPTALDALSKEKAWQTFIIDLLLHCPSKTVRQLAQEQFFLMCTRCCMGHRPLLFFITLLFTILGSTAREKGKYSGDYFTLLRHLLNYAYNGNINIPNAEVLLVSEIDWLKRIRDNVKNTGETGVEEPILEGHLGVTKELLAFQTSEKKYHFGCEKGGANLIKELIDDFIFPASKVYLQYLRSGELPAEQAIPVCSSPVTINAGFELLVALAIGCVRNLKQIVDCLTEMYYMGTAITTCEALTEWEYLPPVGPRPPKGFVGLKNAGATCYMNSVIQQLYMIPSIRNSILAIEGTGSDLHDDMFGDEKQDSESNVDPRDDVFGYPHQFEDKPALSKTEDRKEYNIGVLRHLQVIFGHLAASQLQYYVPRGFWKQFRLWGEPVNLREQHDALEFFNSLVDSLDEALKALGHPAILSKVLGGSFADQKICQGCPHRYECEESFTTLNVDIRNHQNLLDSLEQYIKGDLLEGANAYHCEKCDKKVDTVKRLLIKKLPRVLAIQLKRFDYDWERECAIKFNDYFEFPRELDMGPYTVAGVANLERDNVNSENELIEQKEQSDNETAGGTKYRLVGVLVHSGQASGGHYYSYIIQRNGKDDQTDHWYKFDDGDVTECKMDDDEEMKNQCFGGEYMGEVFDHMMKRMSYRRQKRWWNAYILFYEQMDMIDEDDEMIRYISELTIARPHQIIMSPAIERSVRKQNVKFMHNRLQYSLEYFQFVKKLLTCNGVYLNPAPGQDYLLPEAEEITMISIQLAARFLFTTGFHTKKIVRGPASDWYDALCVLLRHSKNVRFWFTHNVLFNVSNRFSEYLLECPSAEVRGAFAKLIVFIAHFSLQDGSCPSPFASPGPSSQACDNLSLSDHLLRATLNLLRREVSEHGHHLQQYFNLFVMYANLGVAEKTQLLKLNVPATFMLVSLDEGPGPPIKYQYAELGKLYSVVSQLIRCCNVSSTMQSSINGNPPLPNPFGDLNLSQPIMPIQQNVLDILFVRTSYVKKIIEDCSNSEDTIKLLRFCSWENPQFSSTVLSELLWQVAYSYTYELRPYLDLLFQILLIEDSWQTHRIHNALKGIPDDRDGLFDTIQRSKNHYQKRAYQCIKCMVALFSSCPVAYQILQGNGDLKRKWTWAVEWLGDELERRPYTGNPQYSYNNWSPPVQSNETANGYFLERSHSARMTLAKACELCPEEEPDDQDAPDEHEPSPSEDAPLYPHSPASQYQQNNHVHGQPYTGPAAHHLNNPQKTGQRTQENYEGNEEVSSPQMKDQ
The target of assay [4] is SENP3-Flag (human SENP3 with C-terminal Flag epitope) (human, UniProt Q9H4L4 1-574, limits assumed). The assay is described as above. As to the method:
as §1

SENP3-Flag (human SENP3 with C-terminal Flag epitope), sequence (Q9H4L4 whole entry): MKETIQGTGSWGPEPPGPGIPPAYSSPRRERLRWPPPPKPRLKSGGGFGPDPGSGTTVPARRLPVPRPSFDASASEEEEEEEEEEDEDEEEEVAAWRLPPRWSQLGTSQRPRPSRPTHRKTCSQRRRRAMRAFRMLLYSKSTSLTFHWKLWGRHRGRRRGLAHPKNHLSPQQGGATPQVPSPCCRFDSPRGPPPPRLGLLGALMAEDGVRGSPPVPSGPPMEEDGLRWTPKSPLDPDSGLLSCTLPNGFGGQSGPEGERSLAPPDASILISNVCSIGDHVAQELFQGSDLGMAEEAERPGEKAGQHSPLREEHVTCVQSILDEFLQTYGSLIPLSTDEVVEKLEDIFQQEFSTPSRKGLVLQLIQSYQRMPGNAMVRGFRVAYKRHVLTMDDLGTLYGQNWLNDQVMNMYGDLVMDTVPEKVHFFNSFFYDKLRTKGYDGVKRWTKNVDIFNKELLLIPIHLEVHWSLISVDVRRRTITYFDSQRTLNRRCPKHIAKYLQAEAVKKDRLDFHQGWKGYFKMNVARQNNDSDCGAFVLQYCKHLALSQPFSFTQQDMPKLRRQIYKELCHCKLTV

B1: ID2 (co-transfected / co-expressed in 293T cells) (other)
chain: MKAFSPVRSVRKNSLSDHSLGISRSKTPVDDPMSLLYNMNDCYSKLKELVPSIPQNKKVSKMEILQHVIDYILDLQIALDSHPTIVSLHHQRPGQNQASRTPLTTLNTDISILSLQASEFPSELMSNDSKALCG
notes: ID2 was amplified from Jurkat-derived cDNA; The methods describe only a C-terminal Flag version in pRK2001
B1: the binding result is “binds” in assay [1], “no binding” in assay [2], “no binding” in assay [3] and “no binding” in assay [4].
